Assay results from the nanobody polyreactivity screen of Harvey et al. (2022).

test: yeast display, Sf9 membrane polyspecificity reagent, FACS + sequencing; frameworks hold sequencing errors
In short: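 A synthetic nanobody library was expressed on Saccharomyces cerevisiae BJ5465 by galactose induction for 36–48 hours. The library was stained for 1 hour at 4 °C with 10% biotinylated, detergent-solubilized Sf9 membrane reagent and enriched with streptavidin microbeads before FACS. Low and high (top ~1%) gates were set on anti-HA fluorescence for expression and streptavidin fluorescence for reagent binding, and each polyreactivity label reflects the gate of origin.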

Row | Sequence | polyreactivity (PSR sort gate)
1 | QDQLVESGGGLVQAGGSLRLSCAASGRIFAGNARGWYRQAPGKERELVATITRGGSTNYADSVKRPFTISRDNAKNTVYLQMNSLNPEDTAVYYCNADIRRHGGYAHVYWGQGTQVTVSS | low polyreactivity
2 | QDQLVESGGGLVQAGGSLRLSCAASGRIFDIYAMGWYRQAPGKERELVAAITWRGGSTYYADSVKGRFTISRDTAKNTLYLQMNSLKPEDTAVYYCAVDFITPRGSYYWGQGTQVTVSS | low polyreactivity
3 | QDQLVESGGGLVQAGGSLRLSCAASGRIFDLYAMGWYRQAPGKERELVATISTRGGRTYYADSVKGRFTISRDNAKNTVYLQMKRLKPEDTAVYYWNARYLGYGWFDYWGQGTQVTVSS | low polyreactivity
4 | QDQLVESGGGLVQAGGSLRLSCAASGRIFGINAMGWYRQAPGKERELVAAISSGGSTYYADSVKGRFTISRDNAKNTVYLQMNILKPEDTAVYYCAKGPSWKYYSYTLDYWGKGTQVTVSS | low polyreactivity
5 | QDQLVESGGGLVQAGGSLRLSCAASGRIFGPYTMGWYRQAPGKEREFVAAISRSGDSTYYADSVKGRFTISRDNAKNTVYLQMNSLKPEDSAVYYCAAKYGTRLSAYYYWGQGTLVTVSS | high polyreactivity
6 | QDQLVESGGGLVQAGGSLRLSCAASGRIFNANTMGWYRQAPGKERELVARITWSGGGTYYADSVKGRFTISRDNAKNTVYLQMNCLKPEDTAVYYCAARLLIRYYYWGHGTQVTVSS | high polyreactivity
7 | QDQLVESGGGLVQAGGSLRLSCAASGRIFPLYVMGWYRQAPGKERELVAAISRSGSRTYYADSVKGRFTISRDNAKNTVYLQMNSLKPEDTAVYYCAAVTDGTTRYDGDYWGQGTQVTVSS | high polyreactivity
8 | QDQLVESGGGLVQAGGSLRLSCAASGRIFQANAMGWYRQAPGKERELVASISSGGSTNYADSVKGRFTISRDNAKNTVYLQMNRLKPEDTAVYYCAARHPSSAYWVGYYWYDYWGQGTQVTVSS | low polyreactivity
9 | QDQLVESGGGLVQAGGSLRLSCAASGRIFRLNAMGWSRQAPWKERELVAAITRGGNTYYADSVKGRFTISRDNAKNTVYLQMNSLKPEDTAVYYCAATSSRVSGYRYDYWGQGTQVTVSS | high polyreactivity
10 | QDQLVESGGGLVQAGGSLRLSCAASGRIFTRYAMGWYRQAPGKEREFVAAISVRGGTTYYADSVKGRFTISRDNAKNTVYLQMNSLKPEDSAVYYCAARKISKYDYWGQGTQVTVSS | high polyreactivity
11 | QDQLVESGGGLVQAGGSLRLSCAASGRIFYTNAMGWYRQAPGKERQLVATISSTGSTNYADSVKGRFTISRDNAKNTVYLQMNSLKPEDTAVYYCATQVGWRTYSHRNRGYYYWGQGTQVTVSS | high polyreactivity
12 | QDQLVESGGGLVQAGGSLRLSCAASGRIFYTNAMGWYRQAPGQERDLVAVISWGGDTTYYADSVKGRFTISRDNAKNTVYLQMNSLKPEDTAVYYCNGDWGPTYEIYDSWGQGTQVTVSS | low polyreactivity
13 | QDQLVESGGGLVQAGGSLRLSCAASGRIFYVYAMGWYRQAPGKEREFVASISWSGGSTYYADSVKGRFTISRDNAKNTFYLQLNSLKPEDTSVYYCNARAFTHRYDYWGQGTQVTVSS | low polyreactivity
14 | QDQLVESGGGLVQAGGSLRLSCAASGRIFYYNAIGWYRQAPGKEMELVATITRAGGTYYADSVKGRFTISRDNAKNTVYLQMNSLKPEDTAVYYCAKRHPIVDDYKGDYWGQGTQVTVSS | low polyreactivity
15 | QDQLVESGGGLVQAGGSLRLSCAASGRIISANAMGWYRQAPGKERELVATISTGGGRTYYADSVKGRFTISRDNAKNTVYLQMNSLKPEDTAVYYCNATRNYARVRYYYWGQGTQVTVSS | high polyreactivity
16 | QDQLVESGGGLVQAGGSLRLSCAASGRTFADYAMGWYRQAPGKERELVAAISWRGGSTYYADSVKGRFTISRDNAKNTVYLQLNSLNPEDTAVYYCNKAYPADYDYWGQGTQVTVSS | low polyreactivity
17 | QDQLVESGGGLVQAGGSLRLSCAASGRTFDTNAMGWYRQAPGKERELVASISWSTGSTYYADSVKGRFTISRDNAKNTVYLQMNSLKPEDTAVYYCAARKWFRYKGRSRDYWGQGTQVTVSS | high polyreactivity
18 | QDQLVESGGGLVQAGGSLRLSCAASGRTFGPNAMGWYRQAPGKERELVAAITGGGSTYYADSVKGRFTISRDNAKNTVYLQMNSLKPEDTAVYYCSNRGQGFHFGRDYWGQGTQVTVSS | low polyreactivity
19 | QDQLVESGGGLVQAGGSLRLSCAASGRTFGPYAMGWYRQAPGKEREFVAAITWRGGRTNYADSVKGRFTISRDNAKNTVYLQMNSLKPEDTAVYYCNAVISPHQWIRGGDSWGQGTQVTVSS | low polyreactivity
20 | QDQLVESGGGLVQAGGSLRLSCAASGRTFKRYAMGWYRQAPGKERELVAAITFSGGSTYYADSVKGRFTISRDNAKNTVYLQMNSLKPEDTAVYYCAAGYRWTGGLKYDFWGQGTQVTVSS | high polyreactivity
21 | QDQLVESGGGLVQAGGSLRLSCAASGRTFNPYAMGSYRQAPGKERELVAAIRWRGTRTYYADSVKGRFTISRDNAKNTVYLQMNSLKPEDTAVYYCAADDPHSREMDYWGQGTQVTVSS | high polyreactivity

Row | Sequence | polyreactivity (PSR sort gate)
22 | QDQLVESGGGLVQAGGSLRLSCAASGRTFRAYAMGWSRQAPGKERELVASISRRGGSTYYADSVKGRFTISRDNAKNTDYLQMNSLNPEDTAVYYCAASDKYLQYDDWGQGTEVTVSS | high polyreactivity
23 | QDQLVESGGGLVQAGGSLRLSCAASGRTFRRNAMGWYRQAPGKERELVAAITWRGTSTYYADSVKGRFTISRDNAKNTVYLQMNSLKPEDTAVYYCAAVVKDSRPYQAYVGSIHRDYWGQGTQVTVSS | high polyreactivity
24 | QDQLVESGGGLVQAGGSLRLSCAASGRTFWRYALGWYRQAPGKEREMVAAISSGGITYYADSVKGRFTISRDNAKNTVYLQMNSLKPEDTAVYYCARYGPYESSYHYDYWGQGTQVTVSS | high polyreactivity
25 | QDQLVESGGGLVQAGGSLRLSCAASGRTLYYYTMGWYRQAPGKERELVAAITWSGGSTYADSVKGRFTISRDNAKNTVYLQMNSLKPEDTAVYYCAAVRTSRFDYWGQGTQVTVSS | high polyreactivity
26 | QDQLVESGGGLVQAGGSLRLSCAASGRTYASNAMGWYRQAPGKERELVAAITYSGSSTYYADSVKGRFTISRDNAKNTVYLQMNSLKPEDTAVYYCGKGGRRWTYKTWKGYDYWGQGTQVTVSS | high polyreactivity
27 | QDQLVESGGGLVQAGGSLRLSCAASGSIFGPYAMGWYRQAPGKERELVAAITYRGDSTYYADSVKGRFTISRDYAKNTVYLQMNSLKPEDTAVYYCAAEYIYDLWEEYWGQGTQVTVSS | high polyreactivity
28 | QDQLVESGGGLVQAGGSLRLSCAASGSIFGYNDMGWYRQAPGKERELVATITWGGGRTRYADSVKGRFTSSRDNAKNTVYLHMNSLKPEVTAVYYCAADVLRISTLLFRGPGFDSWGQGTQVTVSS | low polyreactivity
29 | QDQLVESGGGLVQAGGSLRLSCAASGSIFPVYDMGWSRQAPGTEREMVAAISVSGGSTYYADSVKGRFTISRDNAKNTVYLQMKSLKPEDTAVYYCIADVHLYWYWYYEREDYWGQGTQVTVSS | low polyreactivity
30 | QDQLVESGGGLVQAGGSLRLSCAASGSIFRPNAMGWYRQAHGKERELVAAITYSTGSTYYADSVKGRFTISRDNAKNTVYLQMNSLKPEDTAVYYCAARFWRWLFPFDYLGQGTQVTVSS | high polyreactivity
31 | QDQLVESGGGLVQAGGSLRLSCAASGSIFRTYAMGWYRQAPGKERELVATITYSDGNTYYADSVKGRFTISRDNAKNTVYLQMNSLKPEDTAFYYSNADGIYASISGYRYDYWGQGTLVTVSS | low polyreactivity
32 | QDQLVESGGGLVQAGGSLRLSCAASGSIFRYYVRGWYREAPGKERELVAAISKSGGSTYYADSVKGRFTISRDNAKNTVYLQMNSLKPEDTAVYYCAAGNTRGGDFNYWGQGTQVTVSS | high polyreactivity
33 | QDQLVESGGGLVQAGGSLRLSCAASGSIFSKNTMGWYRQAPGKERELVAAISGSGVSTYYADSVKGRFTISRDNAKNTVYLQMNSLKPEDTAVYYCAAGPRFRYYSGWYDYWGQGTQVTVSS | high polyreactivity
34 | QDQLVESGGGLVQAGGSLRLSCAASGSIFSNYAMGWYRQAPGKERELVATITSAGSTYYADSVKGRFTISRDNAKNTVYLQLNSLKPEDTAVYYCAALYLGSYDYYDDMDYWGQGTQVTVSS | low polyreactivity
35 | QDQLVESGGGLVQAGGSLRLSCAASGSIFSSNAMGWYRQAPGKERELVAAINKSGGRTYYADSVKGRFTISRDNAKNTVYLQMNSLKPEDTAVYYCNKYGLASGLDYWGQGTQVTVSS | high polyreactivity
36 | QDQLVESGGGLVQAGGSLRLSCAASGSIFTSNAMGWYRQAPGKERELVAVITGSTGRTHYADSVKGRFTISRDNAKNTVYLQMNSLKPEDTAVYYCAAGLTFVTNFDYWGQGTQVTVSS | low polyreactivity
37 | QDQLVESGGGLVQAGGSLRLSCAASGSIFYWYAMGWYRQAPGKERELVAAISKSGGSTYYADSVKGRFTISRDTAKNTVYLQMNSLKPEDTAVYYCAARYLYQGYRFDYWGQGTQVTVSS | high polyreactivity
38 | QDQLVESGGGLVQAGGSLRLSCAASGSNFVINAMGWYRQAPGKERELVAAISYSGTGTYYADSVKGRFTISRDNAKNTVYLQMNSLKPEDTAVYYCAGDYYYRYRIYDYWGQGTQVTVSS | low polyreactivity
39 | QDQLVESGGGLVQAGGSLRLSCAASGSTFNAYAMGWYRQAPGKERELVADISISGGTYYADSVKGRFTISRDNAKNTVYLQMNSLKPEDTAVYYCAAKPSWHGVYYWGQGTQVTVSS | low polyreactivity
40 | QDQLVESGGGLVQAGGSLRLSCAASGSTFRWYAMGWYRQAPGKERELVAAIRRIGSRTYADSVKGRFTISRDNAKNTVYLQMNSLKPEDTAVYYCATRYKYTGYDYWGQGTQVTVTS | high polyreactivity
41 | QDQLVESGGGLVQAGGSLRLSCAASGSTFSNYAMGWYRQAPGKERELVASISQSGGSTYYADSVKGRFTISRDNAKNTVYLQMNSLKPEDTAVYYCAADVAQVGYQVGVSEIYPGYEYWGQGTQVTVSS | low polyreactivity
